How the values were obtained:
Srs2^CΔ276 = molecular target: T1, Srs2^CΔ276 (S. cerevisiae, UniProt P12954 1-898); test: SPR
T1 sequence (looked up): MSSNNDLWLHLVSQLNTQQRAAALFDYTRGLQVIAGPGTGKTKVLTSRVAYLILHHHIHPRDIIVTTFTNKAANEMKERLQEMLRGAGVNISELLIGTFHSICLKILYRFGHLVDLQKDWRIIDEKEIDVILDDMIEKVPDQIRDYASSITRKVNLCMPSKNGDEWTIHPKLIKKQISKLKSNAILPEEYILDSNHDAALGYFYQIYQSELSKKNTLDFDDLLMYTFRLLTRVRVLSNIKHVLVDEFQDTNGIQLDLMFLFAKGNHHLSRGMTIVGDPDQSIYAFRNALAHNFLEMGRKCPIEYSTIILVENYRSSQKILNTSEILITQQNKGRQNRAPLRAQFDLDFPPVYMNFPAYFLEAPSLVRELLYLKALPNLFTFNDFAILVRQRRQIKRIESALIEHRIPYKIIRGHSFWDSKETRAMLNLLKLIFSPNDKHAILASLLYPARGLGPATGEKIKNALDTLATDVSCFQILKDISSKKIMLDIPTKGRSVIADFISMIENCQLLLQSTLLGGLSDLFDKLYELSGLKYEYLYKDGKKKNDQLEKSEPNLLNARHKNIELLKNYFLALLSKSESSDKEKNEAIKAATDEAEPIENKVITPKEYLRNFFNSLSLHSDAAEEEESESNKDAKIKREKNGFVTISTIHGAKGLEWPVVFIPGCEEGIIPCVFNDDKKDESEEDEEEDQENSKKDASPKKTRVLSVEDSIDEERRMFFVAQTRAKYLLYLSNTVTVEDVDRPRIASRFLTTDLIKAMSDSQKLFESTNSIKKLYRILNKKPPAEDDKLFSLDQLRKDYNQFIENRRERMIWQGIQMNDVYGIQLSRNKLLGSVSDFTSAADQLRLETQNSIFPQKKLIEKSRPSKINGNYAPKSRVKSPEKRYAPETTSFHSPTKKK

Rad51 (yRad51 wild type) = Rad51 (yRad51 wild type) (Saccharomyces cerevisiae, UniProt P25454 1-400); test: stopped-flow Cy3 fluorescence
Rad51-E221D = Rad51-E221D (Saccharomyces cerevisiae, UniProt P25454 1-400, E221D); test: stopped-flow Cy3 fluorescence

B1: Rad51 (natural protein, S. cerevisiae (yeast Rad51, yRad51), UniProt P25454 1-400, looked up)
chain: MSQVQEQHISESQLQYGNGSLMSTVPADLSQSVVDGNGNGSSEDIEATNGSGDGGGLQEQAEAQGEMEDEAYDEAALGSFVPIEKLQVNGITMADVKKLRESGLHTAEAVAYAPRKDLLEIKGISEAKADKLLNEAARLVPMGFVTAADFHMRRSELICLTTGSKNLDTLLGGGVETGSITELFGEFRTGKSQLCHTLAVTCQIPLDIGGGEGKCLYIDTEGTFRPVRLVSIAQRFGLDPDDALNNVAYARAYNADHQLRLLDAAAQMMSESRFSLIVVDSVMALYRTDFSGRGELSARQMHLAKFMRALQRLADQFGVAVVVTNQVVAQVDGGMAFNPDPKKPIGGNIMAHSSTTRLGFKKGKGCQRLCKVVDSPCLPEAECVFAIYEDGVGDPREEDE
Kd (Srs2^CΔ276): 15.2 ± 5 µM

B2: 5'-Cy3-dT79 (ssDNA)
DNA: TTTTTTTTTTTTTTTTTTTTTTTTTTTTTTTTTTTTTTTTTTTTTTTTTTTTTTTTTTTTTTTTTTTTTTTTTTTTTTT
apparent K (half saturation) (Rad51 (yRad51 wild type)): 1.55 ± 0.3 nM as printed | apparent K (half saturation) (Rad51-E221D): 2.17 ± 0.6 nM as printed

Source: paper PMC2711036 (Molecular cell, 2009)
